How the values were obtained:
Human SLIT2-N [1] = target: T1, Human SLIT2-N (human, UniProt O94813 31-1121, limits assumed); assay: HTRF competition: d2-labelled human SLIT2-N binding to ROBO2 on HEK293 cells (competitor: cell surface ROBO2) (FIG. 12)
T1 construct: domain: SLIT2-N (N terminal fragment); Soluble analyte in SPR, d2-labelled in HTRF, overexpressed on HEK293 cells in flow cytometry; also called human SLIT2-N (N terminal fragment)
T1 sequence (looked up): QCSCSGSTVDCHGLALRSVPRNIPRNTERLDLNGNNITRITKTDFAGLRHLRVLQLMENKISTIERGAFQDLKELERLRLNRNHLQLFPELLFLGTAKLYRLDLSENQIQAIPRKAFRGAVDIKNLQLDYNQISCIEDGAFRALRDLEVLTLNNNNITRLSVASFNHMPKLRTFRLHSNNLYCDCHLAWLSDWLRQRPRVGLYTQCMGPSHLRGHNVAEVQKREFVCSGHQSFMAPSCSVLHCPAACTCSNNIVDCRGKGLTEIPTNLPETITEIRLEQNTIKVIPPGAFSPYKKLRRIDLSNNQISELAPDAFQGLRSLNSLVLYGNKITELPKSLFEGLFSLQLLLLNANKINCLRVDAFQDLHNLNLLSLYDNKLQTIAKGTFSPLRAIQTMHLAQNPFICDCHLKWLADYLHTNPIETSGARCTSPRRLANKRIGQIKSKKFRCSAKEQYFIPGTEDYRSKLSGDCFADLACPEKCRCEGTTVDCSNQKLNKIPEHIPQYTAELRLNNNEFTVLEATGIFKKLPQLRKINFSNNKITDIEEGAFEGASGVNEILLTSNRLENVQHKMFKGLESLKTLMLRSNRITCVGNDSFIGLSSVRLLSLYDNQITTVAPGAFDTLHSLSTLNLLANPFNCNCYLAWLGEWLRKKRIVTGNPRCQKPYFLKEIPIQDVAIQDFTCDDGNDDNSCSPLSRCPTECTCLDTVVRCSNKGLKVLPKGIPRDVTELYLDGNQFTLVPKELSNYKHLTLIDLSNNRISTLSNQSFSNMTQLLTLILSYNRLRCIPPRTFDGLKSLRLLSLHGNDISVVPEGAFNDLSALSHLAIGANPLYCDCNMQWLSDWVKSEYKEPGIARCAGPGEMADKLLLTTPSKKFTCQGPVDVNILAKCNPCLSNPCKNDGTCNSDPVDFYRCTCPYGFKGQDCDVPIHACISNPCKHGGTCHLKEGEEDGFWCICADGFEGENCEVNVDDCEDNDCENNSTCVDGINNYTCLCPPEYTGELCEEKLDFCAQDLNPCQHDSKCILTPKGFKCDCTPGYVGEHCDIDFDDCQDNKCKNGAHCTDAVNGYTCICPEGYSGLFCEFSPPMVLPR
Description: After incubation, fluorescence at 665 nm and 620 nm was measured on an Envision multilabel plate reader. The HTRF Ratio was calculated as follows: fluorescence at 665 nm/fluorescence at 620 nm×10,000.

Human SLIT2-N [2] = target: T1, Human SLIT2-N; assay: flow cytometry, AF647-labelled ROBO2-Fc S17T/R73Y on HEK293 cells overexpressing human SLIT2-N (FIG. 11)
Description: After incubation, […] FACS buffer was added per well to wash the cells. After washing, cells were resuspended in buffer for data acquisition on a Fortessa Flow Cytometer.

Human SLIT2-N [3] = target: T1, Human SLIT2-N; assay: summary of the Examples (FIGS. 11-13) against ROBO2-Fc 2.2

B1: ROBO2-Fc S17T/R73Y (Fc fusion)
chain: SRLRQEDFPPRIVEHPTDVIVSKGEPTTLNCKAEGRPTPTIEWYKDGERVETDKDDPRSHRMLLPSGSLFFLYIVHGRRSKPDEGSYVCVARNYLGEAVSRNASLEVALLRDDFRQNPTDVVVAAGEPAILECQPPRGHPEPTIYWKKDKVRIDDKEERISIRGGKLMISNTRKSDAGMYTCVGTNMVGERDSDPAELTVFERGGSGGSEPKSSDKTHTCPPCPAPEAAGAPSVFLFPPKPKDTLMISRTPEVTCVVVDVSHEDPEVKFNWYVDGVEVHNAKTKPREEQYNSTYRVVSVLTVLHQDWLNGKEYKCKVSNKALPAPIEKTISKAKGQPREPQVYTLPPSREEMTKNQVSLTCLVKGFYPSDIAVEWESNGQPENNYKTTPPVLDSDGSFFLYSKLTVDKSRWQQGNVFSCSVMHEALHNHYTQKSLSLSPGK
notes: Labelled with Alexa Fluor 647 in the flow cytometry assay; also called ROBO2-Fc 517T/R73Y; ROBO2-Fc S17T/R73Y-AF647
For B1, the IC50 (Human SLIT2-N [1]) was 1.4 nM, the EC50 (Human SLIT2-N [2]) was 2.5 nM and the “fold increase of binding affinity to SLIT2 against SEQ ID NO: 1” value (Human SLIT2-N [3]) was about 10 fold.

Reference: patent US20210214414A1 (Pfizer, published 2021)
